Laboratory results taken from US20240033331A1, “REDUCING IMMUNOGENICITY TO PEGLOTICASE” (Horizon Therapeutics USA, Inc., priority 2019, published 2024).
Where two headings read alike, the source gives them in different places.

Columns and labels:
rabbits = settings: cited from earlier work
[1] = human, in vivo; cited from earlier work
rats = settings: cited from earlier work
serum proteins = settings: cited from earlier work
[2] = system: patients treated with allopurinol; settings: cited from earlier work
patients = settings: bi-weekly or every 4 weeks for up to 30 months; 149 patients; cited from earlier work
[3] = system: patients receiving pegloticase; settings: cited from earlier work; for patients maintaining a response to pegloticase: another study
[4] = system: patients treated with pegloticase; settings: cited from earlier work
[5] = system: subjects with refractory gout; settings: doses of 4 to 12 mg; from 11.1±0.6 mg/dL before; cited from earlier work
[6] = KXX exposure (AUC) by patient weight and age; format: in vivo, human
Text: In some embodiments, heavier and/or younger patients may have a higher incidence of anti-KXX antibodies, or may have higher anti-KXX drug titers, than lighter and/or older patients. In other embodiments, lighter and/or older patients may have higher drug loading of KXX than heavier and/or younger patients. In some embodiments, lighter patients may have higher exposures of KXX than heavier patients. For example, in some embodiments, lighter patients may have greater than 2-fold exposure to KXX than heavier patients. In some embodiments, lower drug levels in a patient may result in anti-KXX antibodies. […] In other embodiments, older patients may have higher exposures of KXX than younger patients. For example, in some embodiments, older patients may have greater than 2-fold exposure to KXX than younger patients. […] Thus, in some embodiments, additional 8-mg doses of KXX may be beneficial for younger and/or heavier patients. In other embodiments, younger and/or heavier patients may benefit from one or more loading doses of 16 mg of KXX.

[7] = diluted in infusion bags, cited from earlier work
[8] = system: hyperuricemic patients (SUA >8 mg/dL) with symptomatic gout; settings: cited from earlier work; for incidence of infusion-related reactions: pegloticase 8 mg
lupus nephritis patients = settings: in vivo; cited from earlier work

In the case of `COc1c(C)c2c(c(O)c1C/C=C(\C)CCC(=O)OCCN1CCOCC1)C(=O)OC2` [MMF, 2-morpholinoethyl (E)-6-(1,3-dihydro4-hydroxy-6-methoxy-7-methyl-3-oxo-5-isobenzofuranyl)-4-methyl-4-hexenoate], the teratogenicity (rabbits) is given as “teratogenic effects”, the “time after which not detectable in urine” value [1] is given as 8 h and the teratogenicity (rats) is given as “teratogenic effects”. The “bound to serum proteins” value (serum proteins) was 30%.

For `Oc1ncnc2[nH]ncc12` [allopurinol], the “patients developing allergic reactions” value [2] is listed as “Approximately 2%” and the severe hypersensitivity syndrome [2] is listed as “about 0.4%”.

In the case of `Sc1ncnc2nc[nH]c12` [mercaptopurine, 6-mercaptopurine], the “time after which not detectable in urine” value [1] is listed as 8 h and the “bound to serum proteins” value (serum proteins) is listed as 30%.

For pegloticase, the long-term safety (patients) is given as “No new safety signals were observed”, the “patients with titers exceeding 1:2430 who developed IRs” value ([3]; 31 of 52 patients) is given as 60% and the “patients maintaining a response to pegloticase” value ([3]; antibody titer exceeding 1:2430 at any time, 7 of 65) is given as 10.8%. The “patients maintaining a response to pegloticase” value ([3]; never had an antibody titer above 1:2430, 58/65) was 89.2%, the “patients who developed high titer anti-pegloticase antibodies and subsequently lost response” value ([3]; one study, 69 of 169 patients) was 41% and the “other uncommon symptoms, share of patients” value ([4]; ecchymoses, sore throat, constipation, chest pain, vomiting) was “at least 5%”. The “most common adverse reactions, share of treated patients” value ([4]; gout flares, infusion reactions, nausea, contusion or ecchymosis, nasopharyngitis, constipation, chest pain, anaphylaxis, vomiting) was ≥ 5%, the “anaphylaxis, frequency” value ([4]; human, in vivo) was 6.5% and the “infusion reactions, share of patients” value ([4]; pegloticase 8 mg every 2 weeks) was 26%. The “pUAc after dosing, mean±SD” value [5] was 1.0±0.5 mg/dL, the “mean area under the curve (AUC)” value ([6]; heavier patients) was “about 4.04 mg/L” and the “exposure, lighter versus heavier patients” value ([6]; human, in vivo) was “greater than 2 fold”. The “exposure, older versus younger patients” value ([6]; human, in vivo) was “greater than 2 fold”, the “mean area under the curve (AUC)” value ([6]; lighter patients) was “about 8.92 mg/L” and the “mean area AUC” value ([6]; older patients) was “about 8.86 mg/L”. The “mean area AUC” value ([6]; younger patients) was “about 3.93 mg/L”, the “time stable after dilution” value ([7]; 2° C. to 8° C.) was 4 h and the “time stable after dilution” value ([7]; room temperature (20° C. to 25° C.)) was 4 h. The “patients with IRs in whom loss of response (return to SUA >6 mg/dL) preceded the first IR” value ([8]; 20/21 patients) was 95%, the “incidence of infusion-related reactions” value ([8]; biweekly dosing) was 26% and the “incidence of infusion-related reactions” value ([8]; every-4-week dosing regimen) was 40%.

In the case of “rituximab: biologic given with MMF and glucocorticoids in a lupus nephritis trial”, the “rate of serious infections” value (lupus nephritis patients) is given as 16.6 /100 patient-years.
